Measurements published in a protein production outcome set (Wang et al. 2014).

Assay: label from the status in PepcDB records
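Further: failed if final PepcDB status was selected cloned or expressed and not failed if soluble or beyond.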

Row | Sequence | protein production
1 | MNGDFYVDTTCIDCDTCRWMTPEVFHRVDEMSAVYHQPTNETERLAALQALLSCPTSSIGTVEKLEHHHHHH | failed
2 | QCPASVEKAIISSFSPVLNEPMLDYIDKAQVYLAAREKRKIGSLLNDTVGKHLPRLFKLYNYKHLIGLAEHEYGQIDFHISQIRTLSASNYVERFSSIKIPVLFINGEKDEYTTVEDARMFSNYIAKSSFNVVPDTGHFLDLESKAAWHHSQKTALSFLGT | not failed
3 | MDELHPGYLVGLLVLLVACSAFFSCVETALLNLDRYRLRLQAKQGLRGARRSSWLLLHDDRLRGTLLFGRTLVNVSAAALASWAALRHWGVIGLAVAIPGMTLLLLLFGALLPRRYGALRSERVALPLSLPLLILQRLCWPLLWLLTLLSNALLRLLGVAAAEQDDSGRSRDEEALHPADNPQASEVNRHDMLLGLLDLEKVTVNDLMIPRNEIEGIDLDDELEVIVEQLRTTSHTRLPVYRDDVNQIEGVVHMRQIARLLTQGRLTKENLRQACMEPYFVPESTPLSTQLVNFQKEKRRIGVVVDEYGEVIGIVTLEDILEEIVGDFNDLDSLDNPDIQAQEDGSFVIDGSANLRELNKSLGWQLPCDGPKTLNGLVTEALEQIPDCAVCLRIGPYCLEIQQSAENRVKSVRAWHPRALTPLVESDASV | failed
4 | MSYEDWAGGIRCSECGREYTGIECPICRQADPTEREVVTEHGNGRGDQQPPENGTVSADSGVYDIDKIEHERHTDAEKVNPEVVDPSDYVTRAVSGVVFNKRHAWKAENRADEDNPPSLFVVTTADSEFNWIEIPLWDDAEGAMEDISIGDPIQAEGKLSKDNGVHNIHVHSQDSIDILTEPPEVKFDSMAIDQITSTTPKVDLEGTVERVGEIKDIQLDDEKVKLREIHVSDLNNDQIQVALWRTNAYEKVAPGDEIIIAGGLAKPHNEKVVVRVGWSGHIGYRSSLEHHHHHH | failed
5 | TVLYVHGGAWFQDPLENHFEYLDLLVDALDARVIMPVYPKIPHRDYRTTFELLTKIYKRLLTKIDEPENLVIIGDSAGGQIALAFAQMLKKEQLSQPGHIVLISPVLDATFKNPEARKYEKEDPMLGIDGSKYLVELWAGDAPLDDYKMSPMNGDLEGLGHITLTVGTKETLYPDAVKFSHMLNDKGIKHQFIPGYNLFHIYPLFPIPERQRFLEQLKKIIVTKEL | failed
6 | MADRVIRADAKGVMRVEDGQAYNEAGQRLDDHALIPPEDANEDQARLNAQLAARDAAGLIVDLHNRGIDRHLWEQNEDAIGVERHNRGVDRHQPQIPAAIPLAAEPRRTLGDFNRPGMFYANRSAIVPPPYQRNDYESHLFYYITLHI | failed
7 | MSTTGRIHSFESCGTVDGPGIRFIVFLQGCLMRCKYCHNRDTWDTHDGKEVTVEEIIAEAKSYRHFMNASGGGITCSGGEAMLQPEFVRDFFRAAHAEGIHTCLDTNGYIRKHTEVIDEVLDATDLVMLDIKHMKDEIHQDFIGVSNRRTLDFARYLHKIGQKTWIRYVVVPGYTDDPEAAHMLGEFIKDMDNIEKVELLPYHKLGAHKWEALGLEYPLEGVNPPSKETMDEIQSILSQYHSNVKYLEHHHHHH | failed
8 | MKFYNREKEVAELKRVQELAFTQNSRMIVVTGRRRIGKTSLIKEALKGTPTVYLFIGRKAESILVTDFVKIVRETLSIFVPEGIPTFTNLMQYLFEVGKTRAFNIVIDEFQEFYNIRPDVFSDMQNLWDEYKQETKINLVISGSVYSLMQKIFTDHNEPLFGRADNILCLRAFKIGVLKQIMEDLASGYSNDDLLALYTLTGGIPKYVELFCDNQALTIDKMYDFVFSENSLFIDEGRNLLITEFGKNYGTYFSILSEIANGHYTQGEIESALGGTAIGGYLSKLENVYNLITRERPIFAKPGTKKNVRYVIGDNFLNFWFKYIEQNRSYIELQNFDDLRQLAKADYPTYSGRVLEKYFKQKLAETGGFKEIGSWWETKSSIGKQRINSYEIDIVALKSSGKKALIAEVKRVPENNYSHTVFMEKVEHLKQKEMSKYDIETQVLGLKDMLEHHHHHH | failed
9 | MICFIKTLFVKIKRKKTSYVTFFLMPILTTLLALSLSFSNNNQAKIGILDKDNSQISKQFIAQLKQNKKYDIFTKIKKEHIDHYLQDKSLEAVLTIDKGFSDKVLQGKSQKLNIRSIANSEITEWVKAQTNYLLENYNIIGDVALGNEDTFNRILQKNQQLNYDVKQVTLTDRSRSKAVSSTTTGFLLILMLGSTSVIYSGILADKSSQLYHRLMLSNLSRFRYMLSYVCVGFVAFTIQIVIMLSLLKVFNISFFVPTSLLLIIFFLFSLLAIGFGLLIGAITQNSQQSSQLANLIVMPTSMLAGCLWPLSITPSYMQAIGKLLPQNWVLSAIAIFQSGGTLSQAWPYLLALMGTALALISFSSLLLKPTKL | failed
10 | MNPMAIISITAFVVALVSGVYIFVKNPESRFNRALLLFSALIAYLSLTDFGLYISESYMMADFWVRMGFLWPIVVPVILHMVLLFTGRRPTMPLLAVIYAPAVVIAALELTTDLITAGPTMTSWGWTFSAAENSLPYQISNIWGFIIASVAIILVALHWRSSRGSDRTQAHYLLTGLILPVLAGVLTDLVLPAAGMAVPSLTDPSAALGVSIIAYGVMRFRLPILSPLNAAMDIVRNMNTFLIITDLGLNIHYVNPATERLTGRRAAEFSGRKVTEVLKFDELSTGSIMESRLRGKDEWIPVIVSAGHVHGSGGEHLGLLFTGSDMRPILEMEEKLRRREDRLVLLTEHMADGLGEFDRDFNFRYLSPSVKKITGYDHEMLTGMSALDFMDYLHPDDTEEVKKLILTRGEGHRATFRIRRPDGNYRWVEYVDRPIRTDGDIEGYVFGLRDIHEHKLAEEALIVSKEKFRELFRNMRSGIIAVESDGKGFRVKSMNPAAERMEGVSCAAIQGMDLQEALPEIWNSPIRRALQEIRETGEAIHCPEVECGEGWFDVHLHQLSTGEVVIICTDITLRKQYEDELRASLREKEALLREVHHRVKNNFQVISSLINLQLDDAEDPAPLRDLQSRIQSMALVHELLYESEDLTSIDMGRYIERLTSSIVNSHHNGEIEVEVAVGDITLPLETAIPLGLIINELVTNSFKHAFTSGGMISVELEEHGGEFTLTITDNGVGLPPDFIIEDSDSLGLRLVAGLVDQIDGTLEVSGEDGTRFRLTFGVVPYRRRV | failed
11 | MFQRKTLQRRNLKGLNLNLHPDVGNNGQLQEKTETHQGQSRIEGHVMSNINAIQNNSNLFLRRGIKKKLTLDAFGDDQAISKPNTVVIQQPQNEPVLVLSSLSQSPCVSSSSSLSTPCIIDAYSNNFGLSPSSTNSTPSTIQGLSNIATPVENEHSISLPPLEESLSPAAADLKDTLSGTSNGNYIQLQDLVQLGKIGAGNSGTVVKALHVPDSKIVAKKTIPVEQNNSTIINQLVRELSIVKNVKPHENIITFYGAYYNQHINNEIIILMEYSDCGSLDKILSVYKRFVQRGTVSSKKTWFNELTISKIAYGVLNGLDHLYRQYKIIHRDIKPSNVLINSKGQIKLCDFGVSKKLINSIADTFVGTSTYMSPERIQGNVYSIKGDVWSLGLMIIELVTGEFPLGGHNDTPDGILDLLQRIVNEPSPRLPKDRIYSKEMTDFVNRCCIKNERERSSIHELLHHDLIMKYVSPSKDDKFRHWCRKIKSKIKEDKRIKREALDRAKLEKKQSERSTH | failed
12 | MPAETNEYLSRFVEYMTGERKSRYTIKEYRFLVDQFLSFMNKKPDEITPMDIERYKNFLAVKKR | failed
13 | MHSNINTLIANHRAGHALDQAFYTDAEVFQTDLQEIFYKEWLFAIPACELDKPGSYVTHQVGNYNVIIVRGADNVIRAFHNACRHRGSVICKAKKGNNPKLVCPYHQWTYELDGRLLWARDMGPDFEPSRHGLKTVHCRELAGLIYICLADEAPDFERFAEVARPYLEVHDLSNAKVAHESSIVERGNWKLVWENNRECYHCGGNHPALCRTFPDDPSVTGIEGGETPSNLQAHFDRCEQAGMPSGFHLSGDGQFRVARMPLKEGAESYTMDGKTAVRRWLGRAAFADAGSLLKFHYPTTWNHFLSDHSIVFRVTPISPTETEVTTKWLVHKDAVEGVDYDLQRLTEVWIATNDEDREVVEFNQMGINSPAYEPGPYSPTQESGVLQFVEWYLSTLKRNSGPHAVAAE | not failed
14 | MEEKRLSAKKGLPPGTLVYTGKYREDFEIEVMNYSIEEFREFKTTDVESVLPFRDSSTPTWINITGIHRTDVVQRVGEFFGIHPLVLEDILNVHQRPKVEFFENYVFIVLKMFTYDKNLHELESEQVSLILTKNCVLMFQEKIGDVFDPVRERIRYNRGIIRKKRADYLLYSLIDALVDDYFVLLEKIDDEIDVLEEEVLERPEKETVQRTHQLKRNLVELRKTIWPLREVLSSLYRDVPPLIEKETVPYFRDVYDHTIQIADTVETFRDIVSGLLDVYLSSVSNKTNEVMKVLTIIATIFMPLTFIAGIYGMNFEYMPELRWKWGYPVVLAVMGVIAVIMVVYFKKKKWL | not failed
